Results taken from the supplement of paper PMC5998384.

Legend:
HeLa Kyoto [1] = assay: thermal stability score vs G1/S (z-score of summed log2 fold changes over temperatures); higher = more thermally stable than in G1/S
HeLa Kyoto [2] = assay: melting temperature (median over replicates), in situ; higher = more thermally stable
HeLa Kyoto [3] = assay: solubility in G1/S (NP-40 vs SDS abundance) (log2 ratio); higher = more soluble; details: cell cycle stage: G1/S
HeLa Kyoto [4] = assay: solubility change mitosis vs G1/S (difference of NP-40 vs SDS log2 ratios) (log2 ratio difference); higher = more soluble in mitosis
[5] = cell cycle stage: early G1 (4.5 h after nocodazole release)
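Throughout, for melting temperature (median over replicates), in situ: HeLa Kyoto cells synchronized by double thymidine or nocodazole block, proteins quantified by TMT10plex mass spectrometry, three independent biological replicates.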
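Throughout, for solubility change mitosis vs G1/S (difference of NP-40 vs SDS log2 ratios): synchronized HeLa Kyoto cells (double thymidine block for G1/S, nocodazole release for mitosis), protein amounts in NP-40 versus SDS lysates quantified by mass spectrometry, three biological replicates.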
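Throughout, for solubility in G1/S (NP-40 vs SDS abundance): HeLa Kyoto cells arrested at G1/S by double thymidine block, proteins quantified by TMT10plex mass spectrometry in mild NP-40 versus SDS extracts, three biological replicates.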
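Throughout, for thermal stability score vs G1/S (z-score of summed log2 fold changes over temperatures): synchronized HeLa Kyoto cells, proteins quantified by TMT10plex mass spectrometry, three biological replicates, mitosis taken 0.5 h after nocodazole release, G1/S directly after double thymidine block.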

Sequence of SDHA (chain, as listed by the source): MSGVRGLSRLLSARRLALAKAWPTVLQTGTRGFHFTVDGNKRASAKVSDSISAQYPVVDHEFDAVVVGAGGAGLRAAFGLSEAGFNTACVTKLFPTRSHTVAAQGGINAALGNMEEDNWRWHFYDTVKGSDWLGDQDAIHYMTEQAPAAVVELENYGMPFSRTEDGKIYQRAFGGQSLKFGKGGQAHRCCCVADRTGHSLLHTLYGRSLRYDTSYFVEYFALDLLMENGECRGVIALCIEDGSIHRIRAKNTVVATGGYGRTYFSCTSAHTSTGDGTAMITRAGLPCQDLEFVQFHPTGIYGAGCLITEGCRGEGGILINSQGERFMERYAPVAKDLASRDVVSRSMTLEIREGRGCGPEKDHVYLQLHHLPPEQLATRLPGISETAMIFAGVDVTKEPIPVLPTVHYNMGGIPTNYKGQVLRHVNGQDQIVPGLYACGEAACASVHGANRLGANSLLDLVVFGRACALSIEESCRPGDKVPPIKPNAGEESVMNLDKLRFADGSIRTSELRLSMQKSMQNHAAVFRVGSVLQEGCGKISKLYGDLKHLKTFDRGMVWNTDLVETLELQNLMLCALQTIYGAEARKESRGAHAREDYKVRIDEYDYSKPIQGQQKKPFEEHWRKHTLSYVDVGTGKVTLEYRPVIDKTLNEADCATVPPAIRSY
Sequence of STK24 (chain, as listed by the source): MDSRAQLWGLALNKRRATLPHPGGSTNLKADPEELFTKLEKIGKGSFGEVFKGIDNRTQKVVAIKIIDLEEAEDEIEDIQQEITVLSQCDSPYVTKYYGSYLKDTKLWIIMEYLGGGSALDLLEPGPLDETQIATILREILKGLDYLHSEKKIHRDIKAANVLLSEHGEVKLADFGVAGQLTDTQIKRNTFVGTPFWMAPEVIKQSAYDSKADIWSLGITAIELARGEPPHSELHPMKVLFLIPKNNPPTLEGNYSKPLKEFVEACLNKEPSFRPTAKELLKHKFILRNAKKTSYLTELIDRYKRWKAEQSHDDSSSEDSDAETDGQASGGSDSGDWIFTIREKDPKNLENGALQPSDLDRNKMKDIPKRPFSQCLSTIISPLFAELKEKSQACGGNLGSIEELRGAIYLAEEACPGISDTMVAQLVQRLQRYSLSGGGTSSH
Sequence of UTP20 (chain, as listed by the source): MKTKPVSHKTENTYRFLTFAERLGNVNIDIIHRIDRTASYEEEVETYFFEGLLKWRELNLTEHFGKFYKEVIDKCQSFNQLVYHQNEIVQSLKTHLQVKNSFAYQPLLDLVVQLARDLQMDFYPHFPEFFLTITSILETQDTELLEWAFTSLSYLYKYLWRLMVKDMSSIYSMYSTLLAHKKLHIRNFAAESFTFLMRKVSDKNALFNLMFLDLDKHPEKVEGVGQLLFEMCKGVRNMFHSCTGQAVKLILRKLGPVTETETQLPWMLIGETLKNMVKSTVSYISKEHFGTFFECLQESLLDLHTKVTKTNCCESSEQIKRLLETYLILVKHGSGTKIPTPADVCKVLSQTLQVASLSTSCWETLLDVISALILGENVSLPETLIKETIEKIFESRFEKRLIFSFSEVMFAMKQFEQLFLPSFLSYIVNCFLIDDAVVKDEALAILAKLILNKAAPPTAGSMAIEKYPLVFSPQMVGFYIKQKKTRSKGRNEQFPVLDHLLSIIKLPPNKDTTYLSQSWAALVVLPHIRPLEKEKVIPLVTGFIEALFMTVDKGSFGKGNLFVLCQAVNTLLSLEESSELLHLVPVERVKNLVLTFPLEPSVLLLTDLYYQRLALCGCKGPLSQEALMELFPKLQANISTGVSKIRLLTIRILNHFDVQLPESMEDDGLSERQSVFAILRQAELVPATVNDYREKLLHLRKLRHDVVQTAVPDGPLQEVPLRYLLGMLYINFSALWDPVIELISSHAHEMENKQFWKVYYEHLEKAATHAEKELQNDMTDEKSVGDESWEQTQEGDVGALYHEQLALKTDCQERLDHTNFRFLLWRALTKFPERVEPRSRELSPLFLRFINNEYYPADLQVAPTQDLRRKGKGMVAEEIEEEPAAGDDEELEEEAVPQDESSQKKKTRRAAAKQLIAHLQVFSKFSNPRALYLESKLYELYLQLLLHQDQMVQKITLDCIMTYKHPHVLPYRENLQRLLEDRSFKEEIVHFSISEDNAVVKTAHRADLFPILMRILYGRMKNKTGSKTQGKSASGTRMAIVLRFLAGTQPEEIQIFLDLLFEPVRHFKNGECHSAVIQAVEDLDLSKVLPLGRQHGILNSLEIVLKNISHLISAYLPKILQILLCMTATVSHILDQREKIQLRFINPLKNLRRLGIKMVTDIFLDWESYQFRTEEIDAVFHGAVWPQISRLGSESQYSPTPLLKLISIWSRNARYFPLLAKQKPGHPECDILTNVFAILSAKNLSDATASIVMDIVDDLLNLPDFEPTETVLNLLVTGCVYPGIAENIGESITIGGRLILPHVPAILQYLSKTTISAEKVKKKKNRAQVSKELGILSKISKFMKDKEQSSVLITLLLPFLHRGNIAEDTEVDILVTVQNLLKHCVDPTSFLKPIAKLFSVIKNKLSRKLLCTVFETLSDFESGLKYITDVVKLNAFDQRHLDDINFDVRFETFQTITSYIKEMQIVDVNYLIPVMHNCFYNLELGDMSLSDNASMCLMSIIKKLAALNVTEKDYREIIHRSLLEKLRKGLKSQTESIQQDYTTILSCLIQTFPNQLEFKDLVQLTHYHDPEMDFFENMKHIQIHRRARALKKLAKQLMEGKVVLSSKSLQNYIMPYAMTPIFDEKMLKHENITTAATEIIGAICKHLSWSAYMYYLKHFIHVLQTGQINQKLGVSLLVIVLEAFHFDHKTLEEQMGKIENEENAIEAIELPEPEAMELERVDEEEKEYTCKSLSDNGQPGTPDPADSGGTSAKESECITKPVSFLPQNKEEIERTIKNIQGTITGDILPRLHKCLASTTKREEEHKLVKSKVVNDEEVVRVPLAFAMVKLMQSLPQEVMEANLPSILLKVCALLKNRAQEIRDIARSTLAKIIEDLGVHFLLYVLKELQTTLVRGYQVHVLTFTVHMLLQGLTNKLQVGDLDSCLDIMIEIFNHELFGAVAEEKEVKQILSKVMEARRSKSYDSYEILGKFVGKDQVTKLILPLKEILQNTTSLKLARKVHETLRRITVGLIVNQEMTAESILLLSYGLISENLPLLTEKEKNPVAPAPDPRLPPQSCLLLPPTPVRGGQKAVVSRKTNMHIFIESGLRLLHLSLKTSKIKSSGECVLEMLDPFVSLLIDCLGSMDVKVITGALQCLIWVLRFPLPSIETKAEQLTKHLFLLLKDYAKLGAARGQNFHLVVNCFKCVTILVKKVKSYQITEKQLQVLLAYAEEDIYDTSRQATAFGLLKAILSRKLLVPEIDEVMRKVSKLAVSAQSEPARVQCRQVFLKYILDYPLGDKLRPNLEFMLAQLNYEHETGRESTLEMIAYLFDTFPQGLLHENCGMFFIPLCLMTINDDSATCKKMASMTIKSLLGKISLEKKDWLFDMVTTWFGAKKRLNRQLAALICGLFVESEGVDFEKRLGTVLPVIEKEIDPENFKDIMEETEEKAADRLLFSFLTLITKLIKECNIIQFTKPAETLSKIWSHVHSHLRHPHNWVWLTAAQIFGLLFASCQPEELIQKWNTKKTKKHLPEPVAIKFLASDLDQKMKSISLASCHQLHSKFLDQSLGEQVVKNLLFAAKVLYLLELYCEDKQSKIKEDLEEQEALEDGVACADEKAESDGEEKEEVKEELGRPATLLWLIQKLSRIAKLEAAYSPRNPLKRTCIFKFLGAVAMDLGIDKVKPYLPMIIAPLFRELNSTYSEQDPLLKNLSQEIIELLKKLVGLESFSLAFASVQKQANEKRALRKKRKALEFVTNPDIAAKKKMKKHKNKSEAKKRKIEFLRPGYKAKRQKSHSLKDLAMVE
Sequence of STK26 (chain, as listed by the source): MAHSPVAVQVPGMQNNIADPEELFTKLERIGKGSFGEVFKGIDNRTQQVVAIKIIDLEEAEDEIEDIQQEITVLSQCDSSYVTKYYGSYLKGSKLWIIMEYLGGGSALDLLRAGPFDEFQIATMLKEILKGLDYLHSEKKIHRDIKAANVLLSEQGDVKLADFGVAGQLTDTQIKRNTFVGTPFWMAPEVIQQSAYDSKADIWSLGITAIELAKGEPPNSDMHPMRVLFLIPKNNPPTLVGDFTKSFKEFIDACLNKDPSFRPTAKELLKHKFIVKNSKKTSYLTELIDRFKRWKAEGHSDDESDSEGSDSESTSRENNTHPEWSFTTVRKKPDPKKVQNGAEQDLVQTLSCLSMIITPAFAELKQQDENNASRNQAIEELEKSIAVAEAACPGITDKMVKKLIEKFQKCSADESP
Sequence of TIMM17B (chain, as listed by the source): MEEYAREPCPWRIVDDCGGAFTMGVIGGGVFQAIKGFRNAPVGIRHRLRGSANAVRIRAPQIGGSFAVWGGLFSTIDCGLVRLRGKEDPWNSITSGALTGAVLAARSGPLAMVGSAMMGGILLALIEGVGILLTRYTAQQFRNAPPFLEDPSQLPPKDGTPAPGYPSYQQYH
Sequence of UAP1 (chain, as listed by the source): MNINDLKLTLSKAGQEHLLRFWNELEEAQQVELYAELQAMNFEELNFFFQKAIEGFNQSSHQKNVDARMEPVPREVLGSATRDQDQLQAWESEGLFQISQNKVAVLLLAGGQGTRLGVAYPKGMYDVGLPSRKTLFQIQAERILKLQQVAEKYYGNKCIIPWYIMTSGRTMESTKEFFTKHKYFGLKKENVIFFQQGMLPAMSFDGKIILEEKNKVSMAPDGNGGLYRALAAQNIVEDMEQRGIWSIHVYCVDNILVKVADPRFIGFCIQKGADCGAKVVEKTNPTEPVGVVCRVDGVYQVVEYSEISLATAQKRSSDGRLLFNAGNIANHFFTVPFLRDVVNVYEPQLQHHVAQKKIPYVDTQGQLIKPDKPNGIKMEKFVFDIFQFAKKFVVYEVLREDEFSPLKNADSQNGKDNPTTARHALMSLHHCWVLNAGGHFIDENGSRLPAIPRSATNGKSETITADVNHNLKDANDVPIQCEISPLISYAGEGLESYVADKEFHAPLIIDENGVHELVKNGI

Substance | thermal stability score (HeLa Kyoto [1]; [5]) | thermal stability score (HeLa Kyoto [1]; cell cycle stage: mitosis) | melting temperature (HeLa Kyoto [2]; cell cycle stage: G1/S) [°C] | melting temperature (HeLa Kyoto [2]; cell cycle stage: mitosis) [°C] | solubility in G1/S (log2) (HeLa Kyoto [3]) | solubility change mitosis (log2) (HeLa Kyoto [4])
SAR1B | 0.15 | 0.55 | 52.3 | 53.4 | -0.00727 | -0.182
SDHA | 1.89 | 2.23 | 54.7 | 56.4 | -0.11 | -0.0448
SLC7A2 | -3.64 | -8.3 | 55.5 | 57 | 0.0385 | -0.149
SLC7A5 | -2.12 | -3.93 | 60.4 | 57.8 | 0.0865 | -0.0332
SMCHD1 | 3.02 | 5.78 | 47.4 | 48.7 | -0.216 | -0.104
SPTAN1 | -0.312 | -1.93 | 53 | 51.5 | -0.956 | 0.485
SPTBN2 | 0.264 | -0.194 | 51.8 | 50.8 | -1.02 | 0.477
SRGAP2 | 0.993 | 0.737 | 50 | 50.5 | 0.0333 | 0.0509
SRRM2 | -1.58 | 5.67 | 48.3 | 50.2 | -0.81 | 0.682
STK24 | 4.29 | 2.12 | 51.7 | 52.3 | 0.479 | -0.0565
STK26 | 1.96 | 2.98 | 49.1 | 49.8 | 0.393 | -0.0994
TACC2 | -1.3 | 1.83 | 54.3 | 53.8 | 0.219 | -0.0921
TANC2 | 0.0704 | 0.122 | – | 50.3 | 0.222 | -0.0218
TATDN1 | -1.11 | -2.1 | 56.1 | 56.4 | 0.194 | -0.119
TCF20 | 0.72 | 1.03 | – | 51.1 | -0.513 | 0.527
TIMM17B | -0.611 | -0.727 | 54.9 | 57.2 | 0.308 | 0.0028

Substance | thermal stability score (HeLa Kyoto [1]; [5]) | thermal stability score (HeLa Kyoto [1]; cell cycle stage: mitosis) | melting temperature (HeLa Kyoto [2]; cell cycle stage: G1/S) [°C] | melting temperature (HeLa Kyoto [2]; cell cycle stage: mitosis) [°C] | solubility in G1/S (log2) (HeLa Kyoto [3]) | solubility change mitosis (log2) (HeLa Kyoto [4])
TJP1 | -0.423 | 1.4 | 49.3 | 50.3 | -0.366 | 0.126
TLK2 | 1.27 | 1.41 | 50.9 | 52.2 | -0.0304 | -0.141
TLN2 | -0.491 | -0.643 | 50.5 | 50.4 | -0.145 | 0.0273
TOP2B | 0.414 | 1.45 | 52.2 | 51.6 | -2.12 | 0.675
TPM4 | -0.98 | -3.48 | 55.8 | – | 0.907 | 0.532
TRIOBP | 0.418 | 1.17 | 49.1 | 49.3 | 0.139 | 0.0573
TRIP12 | -0.291 | 0.532 | 48.4 | 48.7 | -0.461 | 0.333
UAP1 | 0.837 | 1.62 | 53.2 | 53.3 | 0.216 | -0.119
URB1 | 0.229 | 0.403 | – | 50.5 | -1.55 | 0.746
USP24 | 0.0834 | -0.634 | 51.4 | 50.5 | -0.205 | -0.155
UTP20 | 1.17 | 5.97 | 47.3 | 50.7 | -1.01 | 0.363
VLDLR | -2.48 | -3.74 | 56.4 | 55.4 | -0.0421 | -0.0963
VPS13C | -0.0535 | -0.882 | 52.7 | 53.1 | -0.229 | -0.127
WDR45B | 0.71 | -1.09 | 54.5 | 57.4 | 0.0796 | -0.118
ZZEF1 | 0.459 | 0.456 | 51.8 | 51.5 | -0.243 | -0.0476
